The source of these data is patent US9513287.

This assay has as its target Shiga toxin 2f (Stx2f) holotoxin (Escherichia coli).

B1: monoclonal antibody Stx2f-1 (antibody, V domains shown)
VH: QVQLQQSGPEVVRPGVSVKISCKGSGYTFTDYAIHWVKQSHAKSLEWIGFISTYNGNPNYNKEFKGKATVTVDKSSSTAYLELARLTSEDSAIYFCARDFYGSSSWFAYWGQGTLVTVSA
VL: DIVLTQTPASLAVSLGQRATISCRASESVDSYGDDFMHWYQQKPGQPPKLLIYRVSNLESGIPVRFSGSGSRTDFTLTINPVEADDDATYYCQQSNENPYTFGGGTKLEIK
Regarding B1, the dissociation constant (Kd) (as a rule, the equilibrium constant for the complex coming apart) is 0.516 nM.
